The values below come from publication PMC7000732, “Bridging non-overlapping reads illuminates high-order epistasis between distal protein sites in a GPCR” (Nature Communications, 2020).

Several values for one entry are separate records, joined by “and”; a condition that tells them apart may be missing. Identical values can stand only once.

One data set has as its system A2aR W246Y. Particulars: cited from earlier work.
On the set-up of data set [1]: method as in doi:10.1016/0584-8539(95)01421-P. Particulars: cited from earlier work.
The target in data set [2] is A2aR suspended in bovine striatal membranes. Also on record: method as in earlier work. The conditions noted are these: literature value; cited from earlier work.
The nature of data set [3]: FACS-based screen of A2aR library with deep sequencing (BRIDGE): variant enrichment. The class given is cell-based, Saccharomyces cerevisiae.
Data set [4] is described as follows: Whole-cell saturation radioligand binding. Further details: species or system Saccharomyces cerevisiae. Particulars: for CPM: raw replicate counts, empty vector not subtracted.
The nature of data set [5]: Fluorescent ligand binding measured by flow cytometry. Also on record: species or system Saccharomyces cerevisiae. Particulars: for fluorescent ligand binding signal: Supplementary Figure 4 source data, replicates, listed as pYC A2a10H (Q89A). For orientation: Flow cytometry measures light scatter and fluorescence of single cells or particles in a stream.

Turning to `CCNC(=O)[C@H]1O[C@@H](n2cnc3c(N)nc(NCCc4ccc(CCC(=O)O)cc4)nc32)[C@H](O)[C@@H]1O` [CGS21680], the “potency of the agonist” value in the data set on A2aR W246Y was “comparable to that of the wild-type receptor”.
As for `O=C1OC2(c3ccc(O)cc3Oc3cc(O)ccc32)c2ccccc21` [Fluorescein], the “pKa of the dianion” value in data set [1] is 6.43.
Take `CCNC(=O)[C@H]1O[C@@H](n2cnc3c(N)nc(NCCc4ccc(CCC(=O)NCCNC(=S)Nc5ccc6c(c5)C(=O)OC65c6ccc(O)cc6Oc6cc(O)ccc65)cc4)nc32)[C@H](O)[C@@H]1O` [FITC-APEC]: in data set [2], the Kd is 57 nM.

B1: TAWLH: single-residue mutant Q89A of A2aR, positive control reported to exhibit improved binding affinity to NECA (protein, UniProt P29274 1-412, looked up, variant Q89A)
Adenosine receptor A2a: MPIMGSSVYITVELAIAVLAILGNVLVCWAVWLNSNLQNVTNYFVVSLAAADIAVGVLAIPFAITISTGFCAACHGCLFIACFVLVLTASSIFSLLAIAIDRYIAIRIPLRYNGLVTGTRAKGIIAICWVLSFAIGLTPMLGWNNCGQPKEGKNHSQGCGEGQVACLFEDVVPMNYMVYFNFFACVLVPLLLMLGVYLRIFLAARRQLKQMESQPLPGERARSTLQKEVHAAKSLAIIVGLFALCWLPLHIINCFTFFCPDCSHAPLWLMYLAIVLSHTNSVVNPFIYAYRIREFRQTFRKIIRSHVLRQQEPFKAAGTSARVLAAHGSDGEQVSLRLNGHPPGVWANGSAPHPERRPNGYALGLVSGGSAQESQGNTGLPDVELLSHELKGVCPEPPGLDDPLAQDGAGVS
modifications: decahistidine tag
As for B1, the Enrichment rate was 149 in data set [3] (naive to PS4 library (PS4/naive), high-stringency gating, 10 µM FITC-APEC) and 149 fold in data set [3] (naive to PS4 population). Further, the “Fold increase in enrichment rate over WT” value in data set [3] (naive to PS4 library, WT rate 0.30) is 497 fold. Moreover, the Kd in data set [4] (3H-NECA, whole yeast cells, pH 5.8, mean ± SD of three biological replicates, read-out: equilibrium dissociation constant (Kd)) came out at 9.9 ± 0.4 nM. For the same molecule, the CPM in data set [4] ([3H-NECA] 1.6 nM) was 224 CPM and 211 CPM and 240 CPM; in data set [4] ([3H-NECA] 3.1 nM), 450 CPM and 470 CPM and 429 CPM; in data set [4] ([3H-NECA] 6.3 nM) it was 719 CPM and 702 CPM and 640 CPM; in data set [4] ([3H-NECA] 12.5 nM), 1084 CPM and 978 CPM and 892 CPM; in data set [4] ([3H-NECA] 25 nM), 1238 CPM and 1266 CPM and 1270 CPM; in data set [4] ([3H-NECA] 50 nM) it was 1460 CPM and 1383 CPM and 1357 CPM. Further, the CPM in data set [4] ([3H-NECA] 100 nM) is 1834 CPM and 1782 CPM and 1547 CPM; in data set [4] ([3H-NECA] 200 nM), 2245 CPM and 2197 CPM and 2158 CPM; in data set [4] ([3H-NECA] 400 nM), 2884 CPM and 2262 CPM and 2852 CPM. In data set [4] (ratio of Kd to wild-type), the “fold greater 3H-NECA binding affinity than wild-type receptor” value is listed as “fourfold”. Moreover, the “fluorescent ligand binding, result in words” value in data set [5] (FITC-APEC, yeast cells) was “improved binding affinity”. Further, the “fluorescent ligand binding signal” value is 102 and 104 and 101 in data set [5] ([FITC-APEC] 10 nM); 132 and 133 and 147 in data set [5] ([FITC-APEC] 100 nM); 298 and 308 and 303 in data set [5] ([FITC-APEC] 1000 nM); 368 and 357 and 377 in data set [5] ([FITC-APEC] 10000 nM); 430 and 460 and 408 in data set [5] ([FITC-APEC] 50000 nM).

One may read the Kd as the constant that tells how readily two partners part at equilibrium.
